In article PMC8407082, “An Integrative Approach to Determine 3D Protein Structures Using Sparse Paramagnetic NMR Data and Physical Modeling” (Frontiers in Molecular Biosciences, 2021):

Biological target: T1, calmodulin (UniProt P0DP23 1-149)
T1 construct: calmodulin, printed as 148 residues long; 13C/15N-labelled; The MELD model has 149 residues (with the extension C149); also called CaM; source: expressed in M9 minimal medium with 15NH4Cl and 13C6-glucose, purified as described previously (Liu and Vogel, 2012; Ishida et al., 2016)
Assay: solution NMR (backbone chemical shifts, PRE, RDC) with MELD modelling of the complex's structure; 600 MHz; 1.2-fold excess of peptide mixed with CaM; RDCs in 2 mM bis-Tris pH 7.0, 300 mM KCl, 16 mg/ml Pf1 bacteriophage
Conditions: both partners purified

binding result: binds
B1: smooth muscle myosin light chain kinase peptide (peptide)
peptide: PARRKWQKTGHAVRAIGRLSS
notes: proline left from the Asp-Pro acid cleavage site of the linker GGGGSSDP; Made unlabelled (LB) or 13C/15N-labelled (M9); The N-terminal proline is not seen in the NMR experiments and was left out of the MELD model; also called smMLCK peptide; smMLCKp; not shown: 6xHis, N-terminal, cleaved; KSI (D38A), N-terminal, cleaved
